Target: receptor binding domain (RBD) of the SARS-CoV-2 S protein (SARS-CoV-2, UniProt P0DTC2)
Experiment: ELISA

B1: recombinant fragment of human surfactant protein D (rfhSP-D) (domain or fragment)
chain: PGLKGDKGIPGDKGAKGESGLPDVASLRQQVEALQGQVQHLQAAFSQYKKVELFPNGQSVGEKIFKTAGFVKPFTEAQLLCTQAGGQLASPRSAAENAALQQLVVAKNEAAFLSMTDSKTEGKFTYPTGESLVYSNWAPGEPNDDGGSEDCVEIFTNGKWNDRACGEKRLVVCEF
- percent decrease of RBD-hACE-2 interaction (rfhSP-D increased 8-fold): ~25%

Source: publication doi:10.1101/2020.12.18.423415 (bioRxiv, 2020)
